In the supplement of paper PMC9170038:

Tested on: MS2 coat protein
Assay: apparent KD of MS2 coat protein; higher = weaker reporter binding
Settings: Eterna round: R107
How it was run: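 In 100 mM Tris-HCl pH 7.5 with 80 mM KCl and 4 mM MgCl2, and without or with constant ligand, SNAP-549-labelled MS2 coat protein was titrated in twofold steps from 0.7 or 1.5 nM to 3 µM. Per-step times went from 0.8–1.5 h down to 10–20 min. The RNA switches were transcribed on-chip from Illumina sequencing clusters, and apparent KD is the per-design median of normalised cluster binding-curve fits.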

[1] = input ligand: theophylline 20 uM
[2] = input ligand: theophylline 2 mM
[3] = input ligand: tryptophan 2.4 mM

CCGAACAUGAGGAUCACCCAUGUAUCCGAGCGAGGACCGGUACGGCCGCCACUCGAACUGCACCGGAAAAGGGAAACACCGAUCC [theeternabot_sameState_MS2_Trp_A_9]
apparent KD of MS2 coat protein (input ligand: arginine 13.2 mM): 33.4 nM | apparent KD of MS2 coat protein [1]: 95.7 nM | apparent KD of MS2 coat protein [2]: 69.3 nM

AUCCAGAGCCGAAGGAGCGCUAGAAGAUGACAUGAGGAUCACCCAUGUGUGUGAUGUGGCUAGCAGGUAGGUCGCGGACUGGAUU [Exclusion - Arginine B (Freestyle 13)]
apparent KD of MS2 coat protein (input ligand: arginine 13.2 mM): 20.1 nM | apparent KD of MS2 coat protein (input ligand: none): 22.4 nM | apparent KD of MS2 coat protein [1]: 28.1 nM | apparent KD of MS2 coat protein [2]: 33.5 nM | apparent KD of MS2 coat protein [3]: 18.7 nM

GGACUAACCAGAAGGAGCGGCACAGCAGAAACUGCAAAUCCUCCGCACGAGGAUCACCCGUGUCAGGUAGGUCGCUGGUUAGUCG [ArgBX 28]
apparent KD of MS2 coat protein (input ligand: arginine 13.2 mM): 33.5 nM | apparent KD of MS2 coat protein (input ligand: none): 37.1 nM | apparent KD of MS2 coat protein [1]: 55.4 nM | apparent KD of MS2 coat protein [2]: 49.4 nM | apparent KD of MS2 coat protein [3]: 38.4 nM

AUGCAGAACACGGCCGCCACUCCAUGUAUACAUGAGGAUCACCCAUGUAAUUUGUAUUUUUUAUAGAGGACCGGGUGAAAUGCAA [JR_SSTryptoB_Sub012]
apparent KD of MS2 coat protein (input ligand: arginine 13.2 mM): 26.7 nM | apparent KD of MS2 coat protein [1]: 38.7 nM | apparent KD of MS2 coat protein [2]: 42.9 nM

AGAUUCGACACGGCCGCCACUUGGAGUGGCUGCUAGCAUGUUACACAUGAGGAUCACCCAUGUCUAAGGACCGGGUGUUGAGUCU [XTryp B #24]
apparent KD of MS2 coat protein (input ligand: arginine 13.2 mM): 30.7 nM | apparent KD of MS2 coat protein [1]: 79.2 nM | apparent KD of MS2 coat protein [2]: 63.5 nM

UGACCCUUCACGGCCGCCACUCAUUUUAAGUAGAGAGAGUACAUGAGGAUCACCCAUGUGAGAGAGAGGACCGGGUGAGAUGUUG [ss-trypB-0(N)]
apparent KD of MS2 coat protein (input ligand: arginine 13.2 mM): 15.5 nM | apparent KD of MS2 coat protein (input ligand: none): 16.3 nM | apparent KD of MS2 coat protein [1]: 30.8 nM | apparent KD of MS2 coat protein [2]: 16.8 nM | apparent KD of MS2 coat protein [3]: 15.4 nM

CAGUCAGUCAGUCAAUGAGUGAGCCAUGAAGGAGCGUGGGAAACCACAGGUAGGUCGCAUGGGAAACAUGAGGAUCACCCAUGUU [SSArg A #2]
apparent KD of MS2 coat protein (input ligand: arginine 13.2 mM): 27.5 nM | apparent KD of MS2 coat protein (input ligand: none): 25.5 nM | apparent KD of MS2 coat protein [1]: 36.9 nM | apparent KD of MS2 coat protein [2]: 36.2 nM | apparent KD of MS2 coat protein [3]: 28.2 nM

AAUAACAUGAGGAUCACCCAUGUAAAAGAUACCAGAUGCAUGAUGAUCCCUUGGCAGCUUAAACGCGAUUGGAAACAAUCGCGAA [Mat - Same State Theophlline A - Mod of Eli - D11]
apparent KD of MS2 coat protein (input ligand: arginine 13.2 mM): 37.1 nM | apparent KD of MS2 coat protein [1]: 40 nM | apparent KD of MS2 coat protein [3]: 38.3 nM

UAGUAACAUGAGGAUCACCCAUGUCCGGAUACCAGACAUAUACCAGUCCCUUGGCAGCCGCCAGUUAAAAUCUAACACAAAAGUU [theeternabot_sameState_MS2_Theo_A_34]
apparent KD of MS2 coat protein (input ligand: arginine 13.2 mM): 38.8 nM | apparent KD of MS2 coat protein [1]: 55 nM | apparent KD of MS2 coat protein [3]: 34.4 nM

AAUGGCGUUGGUGAGGCGGUUAAUGGCGAUACCAGCGUGGAAACACGCCCUUGGCAGCGCCAAAACAUGAGGAUCACCCAUGUUA [Olomouc]
apparent KD of MS2 coat protein (input ligand: arginine 13.2 mM): 15.8 nM | apparent KD of MS2 coat protein [1]: 23.5 nM | apparent KD of MS2 coat protein [3]: 16.9 nM

CUGACGAGCUUUUUGUCAGGUUGUGUAGAUACCAGUUCUCUGGUGAACCCUUGGCAGCUAACAACAUGAGGAUCACCCAUGUGAU [theeternabot_exclusion_MS2_Theo_A_33]
apparent KD of MS2 coat protein (input ligand: arginine 13.2 mM): 38.5 nM | apparent KD of MS2 coat protein [1]: 96.5 nM | apparent KD of MS2 coat protein [3]: 69.8 nM

AAUUUAUGGUUCUUGAUGUAGUAUCUAUUUCGAGGACCGGUACGGCCGCCACUCGUAAAUUACAUGAGGAUCACCCAUGUUAGCU [JR_ExcTryptoA_Sub011]
apparent KD of MS2 coat protein (input ligand: arginine 13.2 mM): 18.8 nM | apparent KD of MS2 coat protein [1]: 27 nM | apparent KD of MS2 coat protein [2]: 28.8 nM

UAUAUAGAUGGACGUCAUAUAGAUGCAGAAGGAGCGUAGGAAACUACAGGUAGGUCGCUGAGGUACAUGAGGAUCACCCAUGUAG [SSArg A #19 Slice of Pi]
apparent KD of MS2 coat protein (input ligand: arginine 13.2 mM): 34.3 nM | apparent KD of MS2 coat protein (input ligand: none): 26.5 nM | apparent KD of MS2 coat protein [1]: 38 nM | apparent KD of MS2 coat protein [2]: 37.9 nM | apparent KD of MS2 coat protein [3]: 20.9 nM

ACAUGAGGAUCACCCAUGUACAUGAGGGAAGGAGCGGUACAUGUGCCAGGUAGGUCGCCCAAGAGCAUCAGCCAUGUACAUCAGC [qasmullin]
apparent KD of MS2 coat protein (input ligand: arginine 13.2 mM): 43.5 nM | apparent KD of MS2 coat protein (input ligand: none): 131 nM | apparent KD of MS2 coat protein [1]: 131 nM | apparent KD of MS2 coat protein [2]: 90 nM | apparent KD of MS2 coat protein [3]: 80.5 nM

AUCGGGCCUUUAGAACCGCCGUUCCCACCUCGAGGACCGGUACGGCCGCCACUCGGGUGACAUGAGGAUCACCCAUGUGGACGAA [Gexebidive]
apparent KD of MS2 coat protein (input ligand: arginine 13.2 mM): 31 nM | apparent KD of MS2 coat protein (input ligand: none): 181 nM | apparent KD of MS2 coat protein [1]: 432 nM | apparent KD of MS2 coat protein [2]: 737 nM | apparent KD of MS2 coat protein [3]: 284 nM

AGAUUCGACACGGCCGCCACUCGUGCCGGAUUACCGAGUGUCGAACAUGAGGAUCACCCAUGUACGAGGACCGGGUGUUGAGUCU [XTryp B #17]
apparent KD of MS2 coat protein (input ligand: arginine 13.2 mM): 35.1 nM | apparent KD of MS2 coat protein [1]: 53.9 nM | apparent KD of MS2 coat protein [2]: 48.1 nM

AGACAUGAGGAUCACCCAUGUAGUACGGAUACCAGAUCCAGAUUUAUCCCUUGGCAGCUGUGGUACAGCGUUGCAACGCUCCUAG [Exclusion - Theophylline A (Freestyle 15)]
apparent KD of MS2 coat protein (input ligand: arginine 13.2 mM): 13.6 nM | apparent KD of MS2 coat protein [1]: 22.1 nM | apparent KD of MS2 coat protein [3]: 15.4 nM

UCACUCUGGGUGAAUUCCGGAGAUGUGGAAGGAGCGGACGAAAGUCCAGGUAGGUCGCCAUCGGACAUGAGGAUCACCCAUGUAC [Same State - Arginine A (Freestyle 23)]
apparent KD of MS2 coat protein (input ligand: arginine 13.2 mM): 71.8 nM | apparent KD of MS2 coat protein (input ligand: none): 89 nM | apparent KD of MS2 coat protein [1]: 98 nM | apparent KD of MS2 coat protein [2]: 131 nM | apparent KD of MS2 coat protein [3]: 68.5 nM

GUGAGCGCCGAACAUCGCUGGUCCUCUAUCCGAGGACCGGUACGGCCGCCACUCGACAUGAGGAUCACCCAUGUUGGCACUGGCG [Inbemama]
apparent KD of MS2 coat protein (input ligand: arginine 13.2 mM): 9.22 nM | apparent KD of MS2 coat protein [1]: 13.4 nM | apparent KD of MS2 coat protein [2]: 11.7 nM

CUAUAUGGAAACAUAUAGACGCAAAAGCGACGAGGACCGGUACGGCCGCCACUCGAAGAGUGGUGGACAUGAGGAUCACCCAUGU [Design 3 MOD]
apparent KD of MS2 coat protein (input ligand: arginine 13.2 mM): 38.3 nM | apparent KD of MS2 coat protein (input ligand: none): 54.6 nM | apparent KD of MS2 coat protein [1]: 73.1 nM | apparent KD of MS2 coat protein [2]: 58.9 nM | apparent KD of MS2 coat protein [3]: 58.5 nM
